Values quoted from earlier work in publication PMC11190312.

How the values were obtained:
[1] = molecular target: nucleoprotein (SARS-CoV-1) (UniProt P59595); conditions: cited from earlier work
[2] = molecular target: nucleoprotein (SARS-CoV-2) (UniProt P0DTC9); conditions: cited from earlier work

## MASP-2 (from UniProt O00187)
[1]
  Kd: 268 nM
[2]
  Kd: 514 nM
